# Data: the DeepSol protein solubility set
# Experiment: soluble on expression in E. coli; label from the status in PepcDB or PDB records
row,Sequence,soluble on expression in E. coli
1,KGKDDAGEKPDEPADPCGLALQVQAQGTLEQLEAELTGAGQGLALEARAGLLPQAPFPLRTASLKLTREDKSSLAATLDWQPQPGQPGRDRVVATFEAERLDLQRLAGEAIPPAMLSARGGLDAEVDDLSSLHRATLTLDVTKGSSWNRHPLAGKVAASVSALGDPPGAFATAAPAQPHALPGGLWVDQLDVDLQLGPNRVRAQGKLDERAGALKLDAQAPRLDAFWPGIPGAASVKAALDGALARHRGRIEAAYTPADARARVLGRARAQAQLEFSGGWGAGPAAEGAAAGWRGSVSRLTADSAGFALALERPVTLAYVPEALAPQWQWQVGATTLALTFPDKQRVALAHAASRGGAGRWETAGRADALVITAAMVRQILVALDPEAVARAERDSGSPVNAPVPAAQRRISLDASWDLKFAGALAGKVRVARRDGDLRIPGDPPIPLGLRTLVLEANATPTGGQASRLDARLDMATARMGAINGTASATLGGLALDPRQPIRVALDADVTDLAWLGLFVGDTLEVGGMLKANVRAQGSLDGKWNASGTVNGDKLRVVRIDDGVRLIDGMLRARLQDDRVILDSLRFPASLRVMPAEWRTREWVSTNPDAKGGYLEATGQWELSAARGQVRLQLHRFPALQRSDRYGMVSGVVTLDAALPRISINGDITADAGWVSLEILQGVPTLDDDVKVVRAGQKNAQGDGPPLQIDMNLKVDMGPRFYITGMGLDAGLLGSIQIRLQEGRLTGYGALRTRGGGIEAYGQKLRLRRGTLTFQGRLDNPLLDIEALRTGEQVEAGVRVAGTAQRPRIDLVSYPDVSDVEKLSWLVLGRGPDASGGDTALLLSVGTALLGGGQPFYKQFGLDDVSVRSGAIGSSGSLLPDRTVAAGVNRDSDADLATQFLVASKRFANGITLSVEQALAGSETVGRA,not soluble
2,MTKLGYVMTKSSAKNFKIYINGSAKGFKNIIISGAKAWNPSPYLNTVSIGNDVRPNYTVSSSGTNKGSVLAVCNTTYYKSNKLISKNEITLYKGFRSLSTNHKIETIVHEFGHGFGLGHVKTKNAIMLDKGFINKTKPQTDDFNGIKALYKLEHHHHHH,soluble
3,MTMTLVNKNRKSRDENAMAKYNEKELADTSKFLSFVLRHKPEAIGIVLDREGWADINKLILCAQKAGKRLTRALLDTVVATSDKKRFSYSSDGRCIRAVQGHSTSQVAISFAEKTPPQFLYHGTASRFLDEIKKQGLIAGDRHYVHLSADEATARKVGARHGSPVVLTVKAQEMAKRGIPFWQAENGVWLTSTVAVEFLEWSFMPTGVQKQLEHHHHHH,soluble
4,MYIVNSNKSRGSSVERYIVSRLRDKGFAVIRAPASGSKRKDHVPDIIALKSGVIILIEVKSRKNGQKIYIEKEQAEGIREFAKRSGGELFLGVKLPKMLRFIKFDMLRQTEGGNYAIDLETVEKGMELEDLVRYVESKISRTLDSFL,soluble
5,MSLTLRIALFGAGRIGHVHAANIAANPDLELVVIADPFIEGAQRLAEANGAEAVASPDEVFARDDIDGIVIGSPTSTHVDLITRAVERGIPALCEKPIDLDIEMVRACKEKIGDGASKVMLGFNRRFDPSFAAINARVANQEIGNLEQLVIISRDPAPAPKDYIAGSGGIFRDMTIHDLDMARFFVPNIVEVTATGANVFSQEIAEFNDYDQVIVTLRGSKGELINIVNSRHCSYGYDQRLEAFGSKGMLAADNIRPTTVRKHNAESTEQADPIFNFFLERYDAAYKAELATFAQGIRDGQGFSPNFEDGVIALELANACLESAQTGRTVTLNPANEGHHHHHH,soluble
6,MSLNSLPKNIAIYTRVSTEKQDSNNSKANQLESIKQYINNQGWSDVPYEIYSDTQSASITSNSLNMYNDSDTMNPSIFLRDGLRRLIYDANYKKFDKLIVYSHDRLSRDIYEGLLIKHTLKKLNIDILYSKAGEQINSENQSINNFFENMLSNIAALESSIIGGRVLIGNRHNILNNIWAGGPAPYGYKLIALPSNRKKSKLSIYAPEARVVKKIFELYTTGYTPKDIVQFIKSEYSYNKDRLWTINSIKSILNNPVYTGTMVWNKKGGKRNPRKHPIDEYVYSKFDENIRIIDEKLWKKSLNIRKLQDENPKFLSEGHHHHHH,soluble
7,MELLSIQNLTKVYKVPAGFLRKKNFFALKEVSLSIKQGDFLAIVGESGSGKSTLGKIILRLEKPTKGKVSFKGKDIFSMGKEYTRKVSAVFQDPRSSLNPRMKVEEILEEPLIVHRVKGRKERVLKVLQRVRLSEELLEKRPLQISGGQAQRVAIARALILEPELIVADEPTASLDVSVQEEILELFKELNSKGISFFFVTHDIRVVEKVANMVGVIYAGILMELGKKEEVLKNPLHPYTKFLLENVPVRHPKDRKPLKYLQEEEVSIPEEGCPFYPRCPEAMEECKKFIRRSEVNGRLLACNLY,soluble
8,MSLSPIAPYEIGYVHIDSCELCHADGKLVMFLAIDRVSKFTYVDFHDCAGKMEGAAFLRNVVEAFPYQIHIVLTDNGMAFADLPKNRNGPSRRFFGPHIFDRVCIEHGIEHRLTKPYHPWTNGQAERMNRTIKDATIKAYHYDDLESLKAHVLAFVTAYNFAKHLKALRWRTPYQAICDARTKDPSIFKIDPHHLTQGPHTLSEGHHHHHH,not soluble
9,MVDKDIHSEHWYHGLLPREDIKAMLRKNGDFLVRSTEPKAGEPRQYVLSAMQSEELEDAGVKHYVMRLNSSNQIFLEAKGFETIASLVNYYMSSKEPIKKLTVLKTPILKQPWEIEHSQVELTKKLGEGAFGEVWKGKLTLKNGNVENCAIKTAKLESLNKEQIKEIMREARLMRNLDHPNVVKFYGVGASQEPLYVIMELADCGALDSYLQKNPNLVPDKKMEMIYQAACGISYMHEKKLLHRDIAARNCLYGGGQVKIADFGLSREGISYVMDLTKKVPIRWLAPETLKAGIYSPKTDVFAFGIMAWEITENGKEPYPDMRVADVVGKVRNGYRMRFDPVFVDFRFGDYVTKHCWAENPADRVSMADVLRYLQTTFGMKPVVLSILSSNRSTEEEMKTMKPPMFSVKRNNKKKPK,not soluble
10,MSLSSGGGQFIKPASGILTSGFSERTNPVTGKYESHKGQDIAGGGTVTVSAAASGTVVFSGFGASGSGFGGYGYVVKIDHGNGFQTLYGHMRAGSLKVVTGQQVSQGQPIGIMGSTGQSTGQHLHFEIHKNGIPVDPAPYIEGHHHHHH,soluble
11,MPGSRTYRKVDPPDVEQLGRSSWTLLHSVAASYPAQPTDQQKGEMKQFLNIFSHIYPCNWCAKDFEKYIRENAPQVESREELGRWMCEAHNKVNKKLRKPKFDCNFWEKRWKDGWDE,not soluble
12,MTSDTIRQTLDELLLDKNGGSSNEARAFFLSQIIDQLKLISSQTDAERQLQKLQLKDPNDNIVKATPPPPPPPPPLISILQQAPPPPPPPPPPTLKAPPPPPILGLKTPSKSLKTPTPRPKECPTSFLPKKEKKTKTRTVQWSKINASVVQDDSVWGKLAKASNVDIDFDLLDNFFGIESLAVSGAAEVVKVGILRALGKNYKKISKKIFNPKKHFFFLLKISNSLNFQKSTRKDAHVELLTAKRSQNVAIMLKQFKNIDELIDDVSQNKPVAEIDALQNLFGMLPQSEEEEALRRYTGDISLLSPPSSFFYRLVQIQFYRLRIETQIFLSDFSRLMRELAPNVEILIRTSQEILTSPTLPRLLLIFVNMGNYLNGNNSQGNAFGFTLNSLWKLIDLKGNKQEFSLLHLLVTCEPDLVAHLQEELSTLKDASQISFDEIKISLKTLRDGRCKLEKQLETCSGASFTQFLELIKIDCKFELDEFGANYDKLTELQYQLADYFCENRNTFQLDECLKIFNFLMNRLQQTLKEHVTRETRKLKKEEKKETQTTRECEKTMKKPEKIDLFDALTASNGGPESPRKRAAGILDMRQKLGNVRIRKLRDVTTLESSFTPPPPPPLESPTDSTSSKENESVKPAKTSTNYEMCNDLESYITSLTRKRASHLPKAPPKEEPKLPEVLPEKSKIALKIEKIPEKIDKPPLPQAAPIIPKLPQKSIKAPSTVTTRSKVPPPTAAAAVRIVSVTTTTTPTKTAELRKPGARSPKTTVATVPKVTVVPVSRVPVAPSTPLSRRMSAPVVRKPTMTAEKKREITMKPSVSTSARPSLINTSSHPMVRSPLPKMSVLEKPKPLRITRPTVIPQSPTVTSSARPSGLRQPAKPKWV,not soluble
